The record followed here is paper PMC9352680, “A comprehensive thermodynamic model for RNA binding by the Saccharomyces cerevisiae Pumilio protein PUF4”.

First the molecules themselves.
T1: PUF4 RNA-binding domain (Saccharomyces cerevisiae, UniProt P25339 537-888)
T1 sequence: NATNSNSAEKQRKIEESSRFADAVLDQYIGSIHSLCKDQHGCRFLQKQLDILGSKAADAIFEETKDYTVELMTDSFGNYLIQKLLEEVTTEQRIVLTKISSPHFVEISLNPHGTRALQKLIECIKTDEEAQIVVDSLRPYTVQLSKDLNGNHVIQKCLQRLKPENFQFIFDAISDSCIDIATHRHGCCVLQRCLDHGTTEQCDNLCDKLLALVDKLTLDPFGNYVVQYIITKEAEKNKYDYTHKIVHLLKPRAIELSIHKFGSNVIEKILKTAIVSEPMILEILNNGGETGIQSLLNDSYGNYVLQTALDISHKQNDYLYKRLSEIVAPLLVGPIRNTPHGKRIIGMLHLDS

B1: Ib_S1_P5E.1_K5.1_C5.1_H5.1_A5.1_[T5A]_[T6A]_F5.1_T5.1 (ssRNA)
RNA: UCUCUUUGUAAAAUUAUCUCUU
B2: Id_iii_S3_P3E.6_K3.2_C3.3_[C-2T]_H3.2_A3.1_F3.1_T3.2 (ssRNA)
RNA: ACAAACUUUUAUAUAUAUAACAAAC
B3: Ia_S1_P3E.1_K3.1_C3.1_H3.1_[T1G]_A3.1_F3.1_T3.1 (ssRNA)
RNA: UCUCUUGGUAUAUAUCUCUU
B4: Ib_S1_P5E.1_K5.1_C5.1_H5.1_A5.1_[T5A]_[T6C]_F5.1_T5.1 (ssRNA)
RNA: UCUCUUUGUAACAUUAUCUCUU
B5: Id_iii_S3_P3E.6_K3.2_C3.3_H3.2_A3.1_F3.1_T3.2_[T9C] (ssRNA)
RNA: ACAAACUCUUAUAUAUACAACAAAC
B6: Id_iii_S3_P3E.7_K3.3_C3.3_[C-2A]_H3.3_A3.1_F3.1_T3.2 (ssRNA)
RNA: ACAAACUAUACACUAUAUAACAAAC
B7: Ic_S2_P3E.1_K3.1_C3.1_H3.1_A3.1_F3.1_[A8G]_T3.1 (ssRNA)
RNA: UUUGAUUAAUAUGAUAUCGUUCUUUCUUGUAUAUGUUCUUUCUCGAUAUCAUAUUAAUCUUU
B8: Ic_S1_P5E.1_K5.1_C5.1_H5.1_A5.1_[T5C]_[T6A]_F5.1_T5.1 (ssRNA)
RNA: UCUCUUUGUACAAUUAUCUCUU
B9: Id_iii_S2_P5E.5_K5.1_C5.3_H5.1_A5.1_F5.1_T5.2_[T11A] (ssRNA)
RNA: UUUGAUUAAUAUGAUAUCGUUCUUUCUUCUUGUAUUAUUAAAUUCUUUCUCGAUAUCAUAUUAAUCUUU
B10: Id_iii_S2_P5E.5_K5.1_C5.3_H5.1_A5.1_F5.1_T5.2_[A12G] (ssRNA)
RNA: B9 RNA with A41U, A42G
B11: Id_iii_S2_P5E.7_K5.3_C5.3_[T-1G]_H5.3_A5.1_F5.1_T5.2 (ssRNA)
RNA: B9 RNA with U30G, U31A, G32C, U33A, A34C, A41U
B12: Id_iii_S2_P5E.7_K5.3_C5.3_[C-2A]_H5.3_A5.1_F5.1_T5.2 (ssRNA)
RNA: B9 RNA with C29A, U31A, G32C, U33A, A34C, A41U
B13: Id_iii_S2_P5E.9_K5.5_C5.3_H5.1_A5.2_F5.2_T5.2_[A12T] (ssRNA)
RNA: B9 RNA with U35A, U38A, U39A, A41U, A42U
B14: Id_iii_S2_P5E.5_K5.1_C5.3_H5.1_A5.1_F5.1_T5.2_[A12C] (ssRNA)
RNA: B9 RNA with A41U, A42C
B15: Id_iii_S2_P5E.7_K5.3_C5.3_[T-1A]_H5.3_A5.1_F5.1_T5.2 (ssRNA)
RNA: B9 RNA with U30A, U31A, G32C, U33A, A34C, A41U
B16: Id_iii_S2_P5E.8_K5.4_C5.3_H5.1_A5.2_F5.1_T5.2_[A12C] (ssRNA)
RNA: B9 RNA with U35A, A41U, A42C
B17: Id_iii_S2_P5E.7_K5.3_C5.3_[T-1C]_H5.3_A5.1_F5.1_T5.2 (ssRNA)
RNA: B9 RNA with U30C, U31A, G32C, U33A, A34C, A41U
B18: Id_iii_S2_P5E.8_K5.4_C5.3_[T-3C]_H5.1_A5.2_F5.1_T5.2 (ssRNA)
RNA: B9 RNA with U28C, U35A, A41U
B19: Id_iii_S2_P5E.6_K5.2_C5.3_H5.2_A5.1_F5.1_T5.2_[A12T] (ssRNA)
RNA: B9 RNA with G32A, A41U, A42U
B20: Id_iii_S2_P5E.9_K5.5_C5.3_H5.1_A5.2_F5.2_T5.2_[A12G] (ssRNA)
RNA: B9 RNA with U35A, U38A, U39A, A41U, A42G
B21: Id_iii_S2_P5E.5_K5.1_C5.3_H5.1_A5.1_F5.1_T5.2_[A12T] (ssRNA)
RNA: B9 RNA with A41U, A42U
B22: Id_iii_S2_P5E.9_K5.5_C5.3_H5.1_A5.2_F5.2_T5.2_[A12C] (ssRNA)
RNA: B9 RNA with U35A, U38A, U39A, A41U, A42C
B23: Id_iii_S2_P5E.7_K5.3_C5.3_H5.3_A5.1_F5.1_T5.2_[A12C] (ssRNA)
RNA: B9 RNA with U31A, G32C, U33A, A34C, A41U, A42C
B24: Id_iii_S2_P5E.8_K5.4_C5.3_[C-2G]_H5.1_A5.2_F5.1_T5.2 (ssRNA)
RNA: B9 RNA with C29G, U35A, A41U
B25: Id_iii_S2_P5E.7_K5.3_C5.3_[T-3A]_H5.3_A5.1_F5.1_T5.2 (ssRNA)
RNA: B9 RNA with U28A, U31A, G32C, U33A, A34C, A41U
B26: Id_iii_S2_P5E.8_K5.4_C5.3_H5.1_A5.2_F5.1_T5.2_[A12T] (ssRNA)
RNA: B9 RNA with U35A, A41U, A42U
B27: Id_iii_S2_P5E.8_K5.4_C5.3_H5.1_A5.2_F5.1_T5.2_[A12G] (ssRNA)
RNA: B9 RNA with U35A, A41U, A42G
B28: Id_iii_S2_P5E.7_K5.3_C5.3_[C-2G]_H5.3_A5.1_F5.1_T5.2 (ssRNA)
RNA: B9 RNA with C29G, U31A, G32C, U33A, A34C, A41U
B29: Id_iii_S2_P5E.8_K5.4_C5.3_[C-2A]_H5.1_A5.2_F5.1_T5.2 (ssRNA)
RNA: B9 RNA with C29A, U35A, A41U
B30: Id_iii_S2_P5E.8_K5.4_C5.3_[T-3A]_H5.1_A5.2_F5.1_T5.2 (ssRNA)
RNA: B9 RNA with U28A, U35A, A41U
B31: Id_iii_S2_P5E.8_K5.4_C5.3_[C-2T]_H5.1_A5.2_F5.1_T5.2 (ssRNA)
RNA: B9 RNA with C29U, U35A, A41U
B32: Id_iii_S2_P5E.7_K5.3_C5.3_H5.3_A5.1_F5.1_T5.2_[A12T] (ssRNA)
RNA: B9 RNA with U31A, G32C, U33A, A34C, A41U, A42U
B33: Id_iii_S2_P5E.7_K5.3_C5.3_H5.3_A5.1_F5.1_T5.2_[T11C] (ssRNA)
RNA: B9 RNA with U31A, G32C, U33A, A34C, A41C
B34: Id_iii_S3_P3E.6_K3.2_C3.3_[T-3C]_H3.2_A3.1_F3.1_T3.2 (ssRNA)
RNA: ACAAACCCUUAUAUAUAUAACAAAC
B35: Ib_S1_P5E.1_K5.1_C5.1_H5.1_A5.1_[T5C]_[T6G]_F5.1_T5.1 (ssRNA)
RNA: UCUCUUUGUACGAUUAUCUCUU
B36: Id_iii_S2_P4E.8_K4.4_C4.3_H4.1_A4.2_F4.1_T4.2_[G10T] (ssRNA)
RNA: UUUGAUUAAUAUGAUAUCGUUCUUUCUUCUUGUAUUUUAUUUUCUUUCUCGAUAUCAUAUUAAUCUUU
B37: Id_iii_S2_P4E.8_K4.4_C4.3_H4.1_A4.2_F4.1_T4.2_[T11C] (ssRNA)
RNA: B36 RNA with U40G, U41C
B38: Id_iii_S2_P4E.9_K4.5_C4.3_[T-1G]_H4.1_A4.2_F4.2_T4.2 (ssRNA)
RNA: B36 RNA with U30G, U38A, U40G
B39: Id_iii_S2_P4E.9_K4.5_C4.3_[T-1A]_H4.1_A4.2_F4.2_T4.2 (ssRNA)
RNA: B36 RNA with U30A, U38A, U40G
B40: Id_iii_S2_P4E.9_K4.5_C4.3_H4.1_A4.2_F4.2_T4.2_[G10C] (ssRNA)
RNA: B36 RNA with U38A, U40C
B41: Id_iii_S3_P3E.7_K3.3_C3.3_[T-3A]_H3.3_A3.1_F3.1_T3.2 (ssRNA)
RNA: ACAAACACUACACUAUAUAACAAAC
B42: Id_iii_S3_P3E.6_K3.2_C3.3_[T-1C]_H3.2_A3.1_F3.1_T3.2 (ssRNA)
RNA: ACAAACUCCUAUAUAUAUAACAAAC

Changes are numbered by the printed parent chain. Numbers in names are those of the source.

This data set concerns the target T1, PUF4 RNA-binding domain. Put plainly: Mg; RNA-MaP; 20 mM Na-HEPES pH 7.4, 30 mM KOAc, 0.75 mM MgCl2, 0.1% Tween-20, 5% glycerol, 0.1 mg/mL BSA, 2 mM DTT; 25 C; 0.0125-409.6 nM protein. The conditions noted are these: tags: N-His6-TEV cleaved; C-SNAP kept, Cy3B-labelled; label: tethered on chip by stalled RNA polymerase.
In general, Kd refers to the concentration at which binding is half-saturated. High values mean a looser complex, low ones a tighter complex. In turn, B1 returned a Kd of 10.6 nM. Molecule B2 came in with a Kd of 598 nM. Against the preceding molecule, the Kd is about 56-fold higher.

Regarding B3, binding was put at a Kd of 2290 nM. For the molecule B4, binding was characterised by a dissociation constant (Kd) of 4.31 nM. The value for B5 was 693 nM. B6 displayed a Kd of 32.5 nM. The value for B7 was 11.7 nM.

Take B8: the Kd amounted to 5.07 nM. The result for B9 reads 3.88 nM; that for B10, 2.58 nM; that for B11, 963 nM. Turning to B12, binding was characterised by a dissociation constant (Kd) of 579 nM.

Take B13: binding was put at a Kd of 158 nM. This Kd lies about 3.7-fold lower than the previous one.

Consider B14, for which the Kd was 1.64 nM. This Kd lies about 96-fold lower than the previous one.

Take B15: the Kd turned out to be 823 nM. Molecule B16 yielded a Kd of 3.6 nM. This Kd lies about 230-fold lower than the previous one. The result for B17 reads 838 nM; that for B18, 5.82 nM.

For the molecule B19, the Kd is 42.1 nM. In turn, B20 yielded a Kd of 189 nM. This Kd is about 4.5-fold higher than that of the molecule before.

Molecule B21 registered a Kd of 1.59 nM. This Kd is about 120-fold lower than that of the molecule before. The molecule B22 showed a dissociation constant (Kd) of 146 nM.

On to B23, for which the Kd was more than 2300 nM. As to B24, the Kd worked out at 15.4 nM. The result for B25 reads 709 nM.

As to B26, the affinity, expressed as Kd, was 2.65 nM.

As for B27, the Kd was found to be 6.61 nM. B28 displayed a Kd of 2.01 nM. The result for B29 reads 40.3 nM. The result for B30 reads 8.09 nM; that for B31, 8.91 nM. In turn, B32 came in with a Kd of 2160 nM. The result for B33 reads 1770 nM; that for B34, 446 nM.

Molecule B35 registered a Kd of 9.71 nM. The value for B36 was 0.967 nM; that for B37 was 1.42 nM. B38 had a Kd of 502 nM. Compared with the last molecule, the Kd is about 350-fold higher. B39 returned a Kd of 554 nM.

The molecule B40 yielded a Kd of 77.5 nM. On to B41, for which the affinity, expressed as Kd, was 760 nM.

Molecule B42 showed a Kd of 218 nM.
